{
  "source": "paper PMC3930741",
  "target": "recombinant Tg-p43 (E. coli-derived) (Toxoplasma gondii)",
  "test": "cross-linking; purified E. coli-derived Tg-p43 at 1 mg/ml in PBS with 10% glycerol, 0.25% glutaraldehyde on ice, stopped with Tris-HCl pH 8; Coomassie-stained SDS-PAGE; beta-amylase and carbonic anhydrase for comparison",
  "data": [
    {"substance": "recombinant Tg-p43 (E. coli-derived) (natural protein)", "values": [
      {"measurement": "stoichiometry N", "value": 2}
    ]}
  ]
}
